Reference: patent US20180187173

Columns and labels:
[1] = system: ZFN SBS 33488 (engineered); experiment: cell_activity; conditions: pair with 33501, K562 cells; 37.5% in human CD34+ cells
[2] = system: ZFN pair 33488/33501 (engineered); experiment: cell_activity; conditions: K562 cells

Substance: GGAGTCAGGTGCACCATGGTGTCTGTTT (double strand) [HBB left ZFN half-site]
- activity [1]: 66.6 % indels

Substance: HBG1 paralog site
- activity ([2]; 0.000% in CD34+ cells): 0.006 % indels

Substance: HBBP1 paralog site
- activity ([2]; 0.005% in CD34+ cells): 0.024 % indels

Substance: CACCATGGTGCATCTGACTCCTGAGGAGAAGACTGCTGTCA (double strand) [HBD paralog site]
- activity ([2]; off-target paralog, 28.6% in CD34+ cells): 34 % indels

Substance: HBE1 paralog site
- activity ([2]; 0.000% in CD34+ cells): 0 % indels

Substance: HBG2 paralog site
- activity ([2]; 0.005% in CD34+ cells): 0.013 % indels
